Laboratory results from patent publication US20090208500A1 (Genentech, published 2009).

Tests used:
[1] = biological target: T1, human FcγRIII (V158), high affinity isotype (human, UniProt P08637 17-208); test: FcγR binding ELISA; relative to 2H7 control cell line antibody (2 to 4% nonfucosylated)
T1 construct: Receptor captured by anti-GST; construct not described; also called FcγRIII (V158 allele); FcγRIIIA (V158); not shown: GST tag implied by capture on anti-GST coated plates

[2] = biological target: T2, human FcγRIII (F158), low affinity isotype (human, UniProt P08637 17-208); test: as above
T2 construct: Receptor captured on plates by anti-GST (clone 8E2.1.1); also called FcγRIII (F158 allele); FcγRIIIA (F158); not shown: GST tag implied by capture on anti-GST coated plates
T2 sequence (P08637 17-208): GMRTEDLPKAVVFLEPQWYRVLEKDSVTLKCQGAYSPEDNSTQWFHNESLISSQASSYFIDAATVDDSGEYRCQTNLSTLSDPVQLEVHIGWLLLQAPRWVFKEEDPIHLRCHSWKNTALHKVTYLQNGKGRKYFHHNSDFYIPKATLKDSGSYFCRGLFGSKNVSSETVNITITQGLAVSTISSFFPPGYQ

[3] = biological target: T1, human FcγRIII (V158), high affinity …; test: FcγRIII binding ELISA; anti-GST captured receptor, IgG complexed with anti-kappa F(ab')2; relative activity
Experimental: (§1) MaxiSorp 96-well microwell plates (Nunc, Roskilde, Denmark) were coated with 2 μg/ml anti-GST (clone 8E2.1.1, Genentech), at 100 μl/well in 50 mM carbonate buffer, pH 9.6, at 4° C. overnight. Plates were washed with PBS containing 0.05% polysorbate, pH 7.4 (wash buffer) and blocked with PBS containing 0.5% BSA, pH 7.4, at 150 μl/well. After a one-hour incubation at room temperature, plates were washed with wash buffer. Human FcγRIII was added to the plates at 0.25 μg/ml, 100 μl/well, in PBS containing 0.5% BSA, 0.05% polysorbate 20, pH 7.4. (assay buffer). The plates were incubated for one hour and washed with wash buffer. Antibodies were incubated with goat F(ab′)₂ anti-K (Cappel, ICN Pharmaceuticals, Inc., Aurora, Ohio) at a 1:2 (w/w) ratio for 1 hour to form antibody complexes. Eleven […] serial dilutions of complexed IgG antibodies (0.85-50000 ng/ml in threefold serial dilution) in assay buffer were added to the plates. After a two-hour incubation, plates were washed with wash buffer. Bound IgG was detected by adding peroxidase labeled goat F(ab′)₂ anti-human IgG F(ab′)₂ (Jackson ImmunoResearch, West Grove, Pa.) at 100 μl/well in assay buffer. After a one-hour incubation, plates were washed with wash buffer and the substrate 3,3′,5,5′-tetramethyl benzidine (TMB) (Kirkegaard & Perry Laboratories) was added at 100 μl/well. The reaction was stopped by adding 1 M phosphoric acid at 100 μl/well. Absorbance was read at 450 nm on a multiskan Ascent reader (Thermo Labsystems, Helsinki, Finland). The absorbance at the midpoint of the standard curve (mid-OD) was calculated. The corresponding concentrations of standard and samples at this mid-OD were determined from the titration curves using a four-parameter nonlinear regression curve-fitting program (KaleidaGraph, Synergy software, Reading, Pa.). The relative activity was calculated by dividing the mid-OD concentration of standard by that of sample.

[4] = biological target: T2, human FcγRIII (F158), low affinity …; test: as above
Experimental: as §1

[5] = biological target: T1, human FcγRIII (V158), high affinity …; test: FcγRIII binding ELISA; relative to control 2H7.v511 antibody pools with about 5% nonfucosylation
Experimental: as §1, with “Plates” for “MaxiSorp 96-well microwell plates (Nunc, Roskilde, Denmark) were coated with 2 μg/ml anti-GST (clone 8E2.1.1, Genentech), at 100 μl/well in 50 mM carbonate buffer, pH 9.6, at 4° C. overnight. Plates”
(§2) A FcγRIII binding assay was done with antibody 2H7.v511 containing either 65% nonfucosylation (from transient run) or 94-95% nonfucosylation (from best stable clone RNAi2.4-3d).

[6] = biological target: T2, human FcγRIII (F158), low affinity …; test: as above
Experimental: as §1, with “Plates” for “MaxiSorp 96-well microwell plates (Nunc, Roskilde, Denmark) were coated with 2 μg/ml anti-GST (clone 8E2.1.1, Genentech), at 100 μl/well in 50 mM carbonate buffer, pH 9.6, at 4° C. overnight. Plates”
as §2

T1 sequence (P08637 17-208 F176V): as the sequence (P08637 17-208) above, with F160V counted along it

Binder | Binding (fold) [3] [fold] | Binding (fold) [4] [fold] | also measured
humanized anti-CD20 antibody 2H7.v16, antibody pool with 35% to 37% nonfucosylation (from RNAi2 / RNAi4 transiently transfected clone #60 cells) (antibody, human IgG1, kappa, N-linked glycan at Asn297; about 35 to 37% nonfucosylated, differs only in fucose content of the Fc glycan; In the ELISA the IgG was complexed with goat F(ab')2 anti-kappa; RNAi2 and RNAi4 pools are reported together; also called 2H7 antibody pool with 35% to 37% nonfucosylation; lower fucose containing 2H7 antibodies) heavy: not shown light: DIQMTQSPSSLSASVGDRVTITCRASSSVSYMHWYQQKPGKAPKPLIYAPSNLASGVPSRFSGSGSGTDFTLTISSLQPEDFATYYCQQWSFNPPTFGQGTKVEIKRTVAAPSVFIFPPSDEQLKSGTASVVCLLNNFYPREAKVQWKVDNALQSGNSQESVTEQDSKDSTYSLSSTLTLSKADYEKHKVYACEVTHQGLSSPVTKSFNRGEC |  |  | fold increase in binding affinity [1]: 4 fold; fold increase in binding affinity [2]: 6 fold
humanized 2H7.v16 antibody from stable RNAi4 clone 6C (60% non-fucosylation) (antibody, human IgG1, kappa, N-linked glycan at Asn297; 60% non-fucosylation, Glycoform preparation of 2H7.v16 from clone 60 stably transfected with the RNAi4 construct) heavy: not shown light: DIQMTQSPSSLSASVGDRVTITCRASSSVSYMHWYQQKPGKAPKPLIYAPSNLASGVPSRFSGSGSGTDFTLTISSLQPEDFATYYCQQWSFNPPTFGQGTKVEIKRTVAAPSVFIFPPSDEQLKSGTASVVCLLNNFYPREAKVQWKVDNALQSGNSQESVTEQDSKDSTYSLSSTLTLSKADYEKHKVYACEVTHQGLSSPVTKSFNRGEC | 10.1 | 34 | 
humanized 2H7.v16 antibody from stable RNAi4 clone 5F (70% non-fucosylation) (antibody, human IgG1, kappa, N-linked glycan at Asn297; 70% non-fucosylation, Glycoform preparation of 2H7.v16 from clone 60 stably transfected with the RNAi4 construct) heavy: not shown light: DIQMTQSPSSLSASVGDRVTITCRASSSVSYMHWYQQKPGKAPKPLIYAPSNLASGVPSRFSGSGSGTDFTLTISSLQPEDFATYYCQQWSFNPPTFGQGTKVEIKRTVAAPSVFIFPPSDEQLKSGTASVVCLLNNFYPREAKVQWKVDNALQSGNSQESVTEQDSKDSTYSLSSTLTLSKADYEKHKVYACEVTHQGLSSPVTKSFNRGEC | 13.7 | 52.4 | 
humanized 2H7.v16 antibody from stable RNAi4 clone 7C (63% non-fucosylation) (antibody, human IgG1, kappa, N-linked glycan at Asn297; 63% non-fucosylation, Glycoform preparation of 2H7.v16 from clone 60 stably transfected with the RNAi4 construct) heavy: not shown light: DIQMTQSPSSLSASVGDRVTITCRASSSVSYMHWYQQKPGKAPKPLIYAPSNLASGVPSRFSGSGSGTDFTLTISSLQPEDFATYYCQQWSFNPPTFGQGTKVEIKRTVAAPSVFIFPPSDEQLKSGTASVVCLLNNFYPREAKVQWKVDNALQSGNSQESVTEQDSKDSTYSLSSTLTLSKADYEKHKVYACEVTHQGLSSPVTKSFNRGEC | 10.4 | 32.4 | 
humanized 2H7.v16 antibody from clone 'Parent' of Table 1 (5% non-fucosylation) (antibody, human IgG1, kappa, N-linked glycan at Asn297; 5% non-fucosylation) heavy: not shown light: DIQMTQSPSSLSASVGDRVTITCRASSSVSYMHWYQQKPGKAPKPLIYAPSNLASGVPSRFSGSGSGTDFTLTISSLQPEDFATYYCQQWSFNPPTFGQGTKVEIKRTVAAPSVFIFPPSDEQLKSGTASVVCLLNNFYPREAKVQWKVDNALQSGNSQESVTEQDSKDSTYSLSSTLTLSKADYEKHKVYACEVTHQGLSSPVTKSFNRGEC | 1 | 1 | 
humanized anti-CD20 antibody 2H7.v511 containing 65% nonfucosylation (from transient run) (antibody, human IgG1, kappa, N-linked glycan at Asn297; 65% nonfucosylation, In the ELISA the IgG was complexed with goat F(ab')2 anti-kappa; also called hu2H7.v511; v511-NF) heavy: EVQLVESGGGLVQPGGSLRLSCAASGYTFTSYNMHWVRQAPGKGLEWVGAIYPGNGATSYNQKFKGRFTISVDKSKNTLYLQMNSLRAEDTAVYYCARVVYYSYRYWYFDVWGQGTLVTVSSASTKGPSVFPLAPSSKSTSGGTAALGCLVKDYFPEPVTVSWNSGALTSGVHTFPAVLQSSGLYSLSSVVTVPSSSLGTQTYICNVNHKPSNTKVDKKVEPKSCDKTHTCPPCPAPELLGGPSVFLFPPKPKDTLMISRTPEVTCVVVDVSHEDPEVKFNWYVDGVEVHNAKTKPREEQYNATYRVVSVLTVLHQDWLNGKEYKCKVSNAALPAPIAATISKAKGQPREPQVYTLPPSREEMTKNQVSLTCLVKGFYPSDIAVEWESNGQPENNYKTTPPVLDSDGSFFLYSKLTVDKSRWQQGNVFSCSVMHEALHNHYTQKSLSLSPGK light: DIQMTQSPSSLSASVGDRVTITCRASSSVSYLHWYQQKPGKAPKPLIYAPSNLASGVPSRFSGSGSGTDFTLTISSLQPEDFATYYCQQWAFNPPTFGQGTKVEIKRTVAAPSVFIFPPSDEQLKSGTASVVCLLNNFYPREAKVQWKVDNALQSGNSQESVTEQDSKDSTYSLSSTLTLSKADYEKHKVYACEVTHQGLSSPVTKSFNRGEC |  |  | fold increase in affinity [5]: 4.8 fold; fold increase in affinity [6]: 6.2 fold
humanized anti-CD20 antibody 2H7.v511 containing 94-95% nonfucosylation (from best stable clone RNAi2.4-3d) (antibody, human IgG1, kappa, N-linked glycan at Asn297; 94-95% nonfucosylation, In the ELISA the IgG was complexed with goat F(ab')2 anti-kappa; also called hu2H7.v511; 95% nonfucosylated material) heavy: EVQLVESGGGLVQPGGSLRLSCAASGYTFTSYNMHWVRQAPGKGLEWVGAIYPGNGATSYNQKFKGRFTISVDKSKNTLYLQMNSLRAEDTAVYYCARVVYYSYRYWYFDVWGQGTLVTVSSASTKGPSVFPLAPSSKSTSGGTAALGCLVKDYFPEPVTVSWNSGALTSGVHTFPAVLQSSGLYSLSSVVTVPSSSLGTQTYICNVNHKPSNTKVDKKVEPKSCDKTHTCPPCPAPELLGGPSVFLFPPKPKDTLMISRTPEVTCVVVDVSHEDPEVKFNWYVDGVEVHNAKTKPREEQYNATYRVVSVLTVLHQDWLNGKEYKCKVSNAALPAPIAATISKAKGQPREPQVYTLPPSREEMTKNQVSLTCLVKGFYPSDIAVEWESNGQPENNYKTTPPVLDSDGSFFLYSKLTVDKSRWQQGNVFSCSVMHEALHNHYTQKSLSLSPGK light: DIQMTQSPSSLSASVGDRVTITCRASSSVSYLHWYQQKPGKAPKPLIYAPSNLASGVPSRFSGSGSGTDFTLTISSLQPEDFATYYCQQWAFNPPTFGQGTKVEIKRTVAAPSVFIFPPSDEQLKSGTASVVCLLNNFYPREAKVQWKVDNALQSGNSQESVTEQDSKDSTYSLSSTLTLSKADYEKHKVYACEVTHQGLSSPVTKSFNRGEC |  |  | fold increase in affinity [5]: 6.8 fold; fold increase in affinity [6]: 9.8 fold
humanized 2H7.v16 antibody from clone 'Control' of Table 1 (3% non-fucosylation) (antibody, human IgG1, kappa, N-linked glycan at Asn297; 3% non-fucosylation) heavy: not shown light: DIQMTQSPSSLSASVGDRVTITCRASSSVSYMHWYQQKPGKAPKPLIYAPSNLASGVPSRFSGSGSGTDFTLTISSLQPEDFATYYCQQWSFNPPTFGQGTKVEIKRTVAAPSVFIFPPSDEQLKSGTASVVCLLNNFYPREAKVQWKVDNALQSGNSQESVTEQDSKDSTYSLSSTLTLSKADYEKHKVYACEVTHQGLSSPVTKSFNRGEC | 1 | 1 | 
humanized 2H7.v16 antibody from stable RNAi4 clone 5B (45% non-fucosylation) (antibody, human IgG1, kappa, N-linked glycan at Asn297; 45% non-fucosylation, Glycoform preparation of 2H7.v16 from clone 60 stably transfected with the RNAi4 construct) heavy: not shown light: DIQMTQSPSSLSASVGDRVTITCRASSSVSYMHWYQQKPGKAPKPLIYAPSNLASGVPSRFSGSGSGTDFTLTISSLQPEDFATYYCQQWSFNPPTFGQGTKVEIKRTVAAPSVFIFPPSDEQLKSGTASVVCLLNNFYPREAKVQWKVDNALQSGNSQESVTEQDSKDSTYSLSSTLTLSKADYEKHKVYACEVTHQGLSSPVTKSFNRGEC | 7.5 | 24.2 | 
